Values quoted from earlier work, collected in patent US11173109B2, “Compositions in the form of an injectable aqueous solution comprising amylin, an amylin receptor agonist or an amylin analog and a co-polyamino acid” (ADOCIA, priority 2017, dated 2021).
No end group written: not given here.

Settings: neutral pH

## amylin: peptide of 37 amino acids which is co-stored and co-secreted with insulin (KCNTATCATQRLANFLVHSSNNFGAILSSTNVGSNTY; not fully specified (C-terminus, bridges); cysteine pairing not given here; UniProt P10997 34-70, looked up)
  time for which amylin is stable: less than one
